1 substance from article PMC5463187 can be followed below.

In the assay the target is RSV strain A2 pre-fusion F, single-chain triple mutant (SC-TM) construct (respiratory syncytial virus subgroup A strain A2). The experiment in a line: crystal structure.

Take “RSV strain A2 pre-fusion F, single-chain triple mutant (SC-TM) construct (natural protein)”: the stoichiometry N was 3.
